Data reported in the supplement of paper PMC9112550, “Optimization of the antimicrobial peptide Bac7 by deep mutational scanning” (BMC Biology, 2022).

These sequences were tested on Escherichia coli TOP10 (assay: shrunken log2 fold change of peptide-encoding DNA abundance (4.5 h post-induction vs induction); higher = less antimicrobial activity (less host growth inhibition)). Conditions: time post-induction: 4.5 h; library: site-saturation at positions 5, 18, 19, 20.
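Note: peptides expressed intracellularly from a pBAD plasmid library in pooled LB shake-flask culture, induced with 0.3% L-arabinose, DNA abundance read by NGS, three biological replicates, DESeq2 with apeglm shrinkage.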

| Sequence | shrunken log2 fold change |
| --- | --- |
| RRIRIRPPRLPRPRPRPGSMPRP | -0.501 |
| RRIRPRPPRLPRPRPRPDDRPRP | 0.162 |
| RRIRGRPPRLPRPRPRPANNPRP | 0.138 |
| RRIRGRPPRLPRPRPRPGEQPRP | 1.23 |
| RRIRYRPPRLPRPRPRPTCEPRP | 0.00952 |
| RRIRGRPPRLPRPRPRPPDMPRP | 0.879 |
| RRIRGRPPRLPRPRPRPCHYPRP | 0.0219 |
| RRIRNRPPRLPRPRPRPSRPPRP | 0.112 |
| RRIRRRPPRLPRPRPRPSIFPRP | -0.192 |
| RRIRWRPPRLPRPRPRPDCYPRP | 0.148 |
| RRIRNRPPRLPRPRPRPRWNPRP | -0.297 |
| RRIRGRPPRLPRPRPRPSTVPRP | 0.164 |
| RRIRARPPRLPRPRPRPHQFPRP | -0.024 |
| RRIRRRPPRLPRPRPRPFRGPRP | -0.105 |
| RRIRERPPRLPRPRPRPKEDPRP | 0.0193 |
| RRIRLRPPRLPRPRPRPNLVPRP | -0.283 |
| RRIRNRPPRLPRPRPRPGLKPRP | 0.265 |
| RRIRPRPPRLPRPRPRPGPAPRP | 0.51 |
| RRIRLRPPRLPRPRPRPIMQPRP | -0.271 |
| RRIRIRPPRLPRPRPRPFSMPRP | -0.0858 |
| RRIRFRPPRLPRPRPRPVQQPRP | 0.355 |
| RRIRIRPPRLPRPRPRPNRVPRP | -0.0802 |
| RRIRSRPPRLPRPRPRPMQVPRP | -0.064 |
| RRIRVRPPRLPRPRPRPWYHPRP | -0.209 |
| RRIRRRPPRLPRPRPRPKRSPRP | 0.11 |

| Sequence | shrunken log2 fold change |
| --- | --- |
| RRIRARPPRLPRPRPRPLKAPRP | 0.16 |
| RRIRTRPPRLPRPRPRPGIKPRP | -0.162 |
| RRIRQRPPRLPRPRPRPVARPRP | 0.0118 |
| RRIRIRPPRLPRPRPRPKLFPRP | -0.179 |
| RRIRHRPPRLPRPRPRPIYEPRP | -0.234 |
| RRIRERPPRLPRPRPRPFDVPRP | -0.0685 |
| RRIRTRPPRLPRPRPRPNIIPRP | -1.01 |
| RRIRRRPPRLPRPRPRPNVRPRP | -0.0448 |
| RRIRYRPPRLPRPRPRPQMPPRP | -0.205 |
| RRIRRRPPRLPRPRPRPVGKPRP | -0.105 |
| RRIRHRPPRLPRPRPRPRNEPRP | -0.588 |
| RRIRCRPPRLPRPRPRPHSQPRP | -0.0293 |
| RRIRHRPPRLPRPRPRPFKWPRP | -0.0376 |
| RRIRFRPPRLPRPRPRPWTHPRP | -0.0346 |
| RRIRYRPPRLPRPRPRPQLLPRP | -0.42 |
| RRIRCRPPRLPRPRPRPTCRPRP | 0.211 |
| RRIRERPPRLPRPRPRPERHPRP | -0.152 |
| RRIRTRPPRLPRPRPRPTAMPRP | 0.301 |
| RRIRYRPPRLPRPRPRPDHKPRP | -0.308 |
| RRIRYRPPRLPRPRPRPFSPPRP | -0.319 |
| RRIRYRPPRLPRPRPRPWIDPRP | -0.274 |
| RRIRDRPPRLPRPRPRPGETPRP | 0.0408 |
| RRIRMRPPRLPRPRPRPTIYPRP | 0.713 |
| RRIRIRPPRLPRPRPRPQVLPRP | -0.338 |
| RRIRKRPPRLPRPRPRPVEFPRP | 0.192 |

| Sequence | shrunken log2 fold change |
| --- | --- |
| RRIRGRPPRLPRPRPRPFAWPRP | 0.573 |
| RRIRNRPPRLPRPRPRPQQIPRP | -0.23 |
| RRIRVRPPRLPRPRPRPAHSPRP | 0.0902 |
| RRIRCRPPRLPRPRPRPECCPRP | 0.401 |
| RRIRDRPPRLPRPRPRPICGPRP | 0.0876 |
| RRIRKRPPRLPRPRPRPCYWPRP | 0.0448 |
| RRIRARPPRLPRPRPRPYSMPRP | -0.484 |
| RRIRFRPPRLPRPRPRPYGDPRP | -0.0819 |
| RRIRRRPPRLPRPRPRPKALPRP | 0.237 |
| RRIRARPPRLPRPRPRPVANPRP | 0.238 |
| RRIRIRPPRLPRPRPRPQVAPRP | -0.333 |
| RRIRERPPRLPRPRPRPTHWPRP | 1.02 |
| RRIRLRPPRLPRPRPRPLDNPRP | -0.293 |
| RRIRDRPPRLPRPRPRPAFQPRP | 0.201 |
| RRIRERPPRLPRPRPRPSLAPRP | -0.0635 |
| RRIRMRPPRLPRPRPRPQEFPRP | 0.284 |
| RRIRCRPPRLPRPRPRPPFDPRP | 0.415 |
| RRIRGRPPRLPRPRPRPHRVPRP | 0.0916 |
| RRIRHRPPRLPRPRPRPSRTPRP | 0.138 |
| RRIRHRPPRLPRPRPRPLNRPRP | 0.0215 |
| RRIRCRPPRLPRPRPRPRSHPRP | -0.00365 |
| RRIRGRPPRLPRPRPRPEHYPRP | -0.0809 |
| RRIRFRPPRLPRPRPRPATAPRP | 0.106 |
| RRIRHRPPRLPRPRPRPMFVPRP | 0.0711 |
| RRIRYRPPRLPRPRPRPVTQPRP | 3.05 |

| Sequence | shrunken log2 fold change |
| --- | --- |
| RRIRRRPPRLPRPRPRPPTAPRP | 0.569 |
| RRIRHRPPRLPRPRPRPLVTPRP | 1.93 |
| RRIRQRPPRLPRPRPRPPAEPRP | 0.589 |
| RRIRRRPPRLPRPRPRPDMTPRP | 0.0544 |
| RRIRQRPPRLPRPRPRPQISPRP | -0.159 |
| RRIRRRPPRLPRPRPRPMTDPRP | 0.00399 |
| RRIRGRPPRLPRPRPRPPSYPRP | 0.326 |
| RRIRTRPPRLPRPRPRPWYCPRP | -0.153 |
| RRIRARPPRLPRPRPRPYDVPRP | -0.0868 |
| RRIRNRPPRLPRPRPRPKSQPRP | 0.0119 |
| RRIRKRPPRLPRPRPRPTPMPRP | 0.555 |
| RRIRRRPPRLPRPRPRPTQSPRP | 0.804 |
| RRIRRRPPRLPRPRPRPGICPRP | 0.0771 |
| RRIRTRPPRLPRPRPRPCKTPRP | -0.0173 |
| RRIRARPPRLPRPRPRPCCVPRP | 0.559 |
| RRIRIRPPRLPRPRPRPNSVPRP | -0.342 |
| RRIRARPPRLPRPRPRPSFLPRP | -0.338 |
| RRIRDRPPRLPRPRPRPNRKPRP | -0.355 |
| RRIRERPPRLPRPRPRPHMVPRP | -0.174 |
| RRIRFRPPRLPRPRPRPFTCPRP | -0.271 |
| RRIRRRPPRLPRPRPRPPHEPRP | 0.449 |
| RRIRFRPPRLPRPRPRPCYCPRP | -0.064 |
| RRIRKRPPRLPRPRPRPSCNPRP | 0.149 |
| RRIRYRPPRLPRPRPRPQPPPRP | 0.163 |
| RRIRMRPPRLPRPRPRPDIRPRP | -0.00649 |

| Sequence | shrunken log2 fold change |
| --- | --- |
| RRIRPRPPRLPRPRPRPMTCPRP | -0.251 |
| RRIRYRPPRLPRPRPRPPRQPRP | 0.0146 |
| RRIRRRPPRLPRPRPRPAPRPRP | 0.996 |
| RRIRGRPPRLPRPRPRPLGLPRP | 0.841 |
| RRIRCRPPRLPRPRPRPQLPPRP | -0.104 |
| RRIRARPPRLPRPRPRPKYSPRP | -0.39 |
| RRIRTRPPRLPRPRPRPVTDPRP | 0.0266 |
| RRIRMRPPRLPRPRPRPWGQPRP | -0.0394 |
| RRIRFRPPRLPRPRPRPKMLPRP | -0.0622 |
| RRIRRRPPRLPRPRPRPEGMPRP | 1.27 |
| RRIRCRPPRLPRPRPRPIRIPRP | 0.0952 |
| RRIRIRPPRLPRPRPRPCCLPRP | -0.478 |
| RRIRKRPPRLPRPRPRPFTTPRP | -0.243 |
| RRIRERPPRLPRPRPRPMFKPRP | -0.204 |
| RRIRKRPPRLPRPRPRPLQTPRP | 0.182 |
| RRIRHRPPRLPRPRPRPHDQPRP | -0.104 |
| RRIRGRPPRLPRPRPRPQAPPRP | 0.662 |
| RRIRHRPPRLPRPRPRPMLKPRP | -0.164 |
| RRIRTRPPRLPRPRPRPITVPRP | -0.154 |
| RRIRYRPPRLPRPRPRPLEWPRP | 0.00157 |
| RRIRVRPPRLPRPRPRPVHWPRP | 0.133 |
| RRIRSRPPRLPRPRPRPFEWPRP | 0.0589 |
| RRIRFRPPRLPRPRPRPQWWPRP | -0.0312 |
| RRIRFRPPRLPRPRPRPPLQPRP | 0.353 |
| RRIRSRPPRLPRPRPRPACHPRP | -0.0735 |

| Sequence | shrunken log2 fold change |
| --- | --- |
| RRIRGRPPRLPRPRPRPWLEPRP | 0.303 |
| RRIRFRPPRLPRPRPRPKRTPRP | 0.0846 |
| RRIRNRPPRLPRPRPRPTPRPRP | 0.677 |
| RRIRMRPPRLPRPRPRPVHMPRP | -0.318 |
| RRIRKRPPRLPRPRPRPPTNPRP | 0.654 |
| RRIRLRPPRLPRPRPRPLIGPRP | 0.0224 |
| RRIRTRPPRLPRPRPRPCGNPRP | -0.0693 |
| RRIRHRPPRLPRPRPRPLSWPRP | 0.146 |
| RRIRRRPPRLPRPRPRPMPTPRP | 0.178 |
| RRIRQRPPRLPRPRPRPKVSPRP | -0.073 |
| RRIRCRPPRLPRPRPRPDPWPRP | -0.0438 |
| RRIRFRPPRLPRPRPRPTAPPRP | 0.602 |
| RRIRMRPPRLPRPRPRPVLRPRP | 0.106 |
| RRIRERPPRLPRPRPRPKMGPRP | 0.00452 |
| RRIRKRPPRLPRPRPRPSCSPRP | -0.0597 |
| RRIRSRPPRLPRPRPRPERMPRP | 0.263 |
| RRIRQRPPRLPRPRPRPFGEPRP | 0.287 |
| RRIRIRPPRLPRPRPRPANIPRP | -0.383 |
| RRIRARPPRLPRPRPRPMVVPRP | -0.0787 |
| RRIRERPPRLPRPRPRPVPGPRP | 0.186 |
| RRIRVRPPRLPRPRPRPYGAPRP | 0.162 |
| RRIRERPPRLPRPRPRPITMPRP | -0.408 |
| RRIRARPPRLPRPRPRPAYSPRP | -0.0547 |
| RRIRPRPPRLPRPRPRPDEMPRP | 0.377 |
| RRIRPRPPRLPRPRPRPEAMPRP | 0.0142 |
